Conditions in all cases: both partners purified
Assay [1] has as its target T1, yeast β'-COP 1-304 (N-terminal WD-repeat domain), untagged, wild type (yeast (S. cerevisiae), UniProt P41811 1-304).
T1 construct: also called β'-COP N-terminal WD-repeat domain
T1 sequence (looked up): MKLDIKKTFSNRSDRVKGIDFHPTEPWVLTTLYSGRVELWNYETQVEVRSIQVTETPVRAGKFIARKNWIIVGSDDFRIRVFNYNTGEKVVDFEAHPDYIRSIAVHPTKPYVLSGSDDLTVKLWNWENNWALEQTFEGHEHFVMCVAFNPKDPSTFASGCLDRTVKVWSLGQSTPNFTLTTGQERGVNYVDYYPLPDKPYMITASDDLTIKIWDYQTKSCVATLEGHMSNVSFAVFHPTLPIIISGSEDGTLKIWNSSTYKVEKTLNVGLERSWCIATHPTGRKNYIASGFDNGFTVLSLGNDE
The assay can be described thus: ITC; Microcal VP-ITC, 10°C; peptide in the syringe at ten times the molar concentration of the β'-COP construct in the cell; 50 mM HEPES (pH 7.4), 100 mM NaCl.

The target of assay [2] is T2, yeast β'-COP 1-304 R15A K17A R59A (yeast (S. cerevisiae), UniProt P41811 1-304, R15A | K17A | R59A).
T2 construct: constructs are in the Supplemental Experimental Procedures; also called β'-COP R15A K17A R59A mutant
T2 sequence (looked up): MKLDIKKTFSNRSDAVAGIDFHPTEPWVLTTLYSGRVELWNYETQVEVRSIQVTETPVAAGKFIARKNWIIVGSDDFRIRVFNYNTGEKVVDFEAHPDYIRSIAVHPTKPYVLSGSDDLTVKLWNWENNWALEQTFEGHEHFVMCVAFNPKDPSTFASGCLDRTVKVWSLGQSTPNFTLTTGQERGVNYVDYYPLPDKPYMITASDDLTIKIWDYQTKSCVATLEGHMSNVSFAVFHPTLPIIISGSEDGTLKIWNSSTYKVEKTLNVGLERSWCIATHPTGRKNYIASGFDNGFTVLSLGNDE
The description is as above.

Assay [3] deals with T3, yeast β'-COP 1-304 D98A D117A (yeast (S. cerevisiae), UniProt P41811 1-304, D98A | D117A).
T3 construct: constructs are in the Supplemental Experimental Procedures; also called D98A D117A mutant
T3 sequence (looked up): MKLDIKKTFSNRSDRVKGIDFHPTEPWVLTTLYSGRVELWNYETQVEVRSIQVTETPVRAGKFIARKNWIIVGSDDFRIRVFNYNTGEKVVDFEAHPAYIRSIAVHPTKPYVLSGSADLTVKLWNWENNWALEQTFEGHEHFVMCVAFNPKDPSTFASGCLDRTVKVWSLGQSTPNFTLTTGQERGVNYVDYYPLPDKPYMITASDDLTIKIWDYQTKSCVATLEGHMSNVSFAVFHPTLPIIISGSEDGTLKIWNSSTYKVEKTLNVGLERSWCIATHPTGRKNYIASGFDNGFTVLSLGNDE
Described as above.

The target in assay [4] is T4, yeast β'-COP 1-304 D206A E248A (yeast (S. cerevisiae), UniProt P41811 1-304, D206A | E248A).
T4 construct: constructs are in the Supplemental Experimental Procedures; also called D206A E248A mutant
T4 sequence (looked up): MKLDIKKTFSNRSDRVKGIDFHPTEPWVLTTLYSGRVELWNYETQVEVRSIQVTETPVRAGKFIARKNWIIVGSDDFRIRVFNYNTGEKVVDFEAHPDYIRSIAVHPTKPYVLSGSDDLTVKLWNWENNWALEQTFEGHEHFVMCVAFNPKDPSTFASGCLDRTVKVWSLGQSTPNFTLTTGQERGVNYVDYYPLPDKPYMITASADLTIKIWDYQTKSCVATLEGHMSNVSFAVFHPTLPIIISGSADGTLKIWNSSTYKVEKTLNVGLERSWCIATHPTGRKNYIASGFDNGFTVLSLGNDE
Described as above.

The target in assay [5] is T5, yeast β'-COP 1-304 (N-terminal WD-repeat domain), untagged (yeast (S. cerevisiae), UniProt P41811 1-304).
T5 construct: source: E. coli BL21(DE3)pLysS, purified (glutathione sepharose, thrombin cleavage, S200 gel filtration); not shown: GST, C-terminal, cleaved
T5 sequence (looked up): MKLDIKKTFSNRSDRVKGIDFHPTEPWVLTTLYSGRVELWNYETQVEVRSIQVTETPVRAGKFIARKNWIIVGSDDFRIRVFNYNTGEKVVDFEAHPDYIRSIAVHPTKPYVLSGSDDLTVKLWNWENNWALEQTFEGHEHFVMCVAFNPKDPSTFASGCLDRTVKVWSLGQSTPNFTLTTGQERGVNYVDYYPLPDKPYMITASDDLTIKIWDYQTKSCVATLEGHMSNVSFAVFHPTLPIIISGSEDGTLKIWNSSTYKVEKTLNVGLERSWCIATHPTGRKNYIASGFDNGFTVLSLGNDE
The assay can be described thus: ITC; Microcal VP-ITC, 10°C; peptide in the syringe, protein in the cell; 50 mM Hepes pH 7.4, 100 mM NaCl.

For assay [6], the target named is T1, yeast β'-COP 1-304 (N-terminal …). Nature of the assay: crystal structure; β'1-304 (untagged) with CTFKKTN; details in the Supplemental Experimental Procedures.
For assay [7] the target is unchanged. Nature of the assay: crystal structure; β'1-304 (10 mg/ml) with CTFKTKTN (30 mg/ml, mixed 1:10); 0.1 M HEPES (pH 7.5), 0.5 M ammonium sulfate, 30% v/v MPD; space group P6(1).
The target in assay [8] is T6, yeast β'-COP 1-604 (both WD-repeat domains) (yeast (S. cerevisiae), UniProt P41811 1-604).
T6 construct: constructs are in the Supplemental Experimental Procedures
T6 sequence (looked up): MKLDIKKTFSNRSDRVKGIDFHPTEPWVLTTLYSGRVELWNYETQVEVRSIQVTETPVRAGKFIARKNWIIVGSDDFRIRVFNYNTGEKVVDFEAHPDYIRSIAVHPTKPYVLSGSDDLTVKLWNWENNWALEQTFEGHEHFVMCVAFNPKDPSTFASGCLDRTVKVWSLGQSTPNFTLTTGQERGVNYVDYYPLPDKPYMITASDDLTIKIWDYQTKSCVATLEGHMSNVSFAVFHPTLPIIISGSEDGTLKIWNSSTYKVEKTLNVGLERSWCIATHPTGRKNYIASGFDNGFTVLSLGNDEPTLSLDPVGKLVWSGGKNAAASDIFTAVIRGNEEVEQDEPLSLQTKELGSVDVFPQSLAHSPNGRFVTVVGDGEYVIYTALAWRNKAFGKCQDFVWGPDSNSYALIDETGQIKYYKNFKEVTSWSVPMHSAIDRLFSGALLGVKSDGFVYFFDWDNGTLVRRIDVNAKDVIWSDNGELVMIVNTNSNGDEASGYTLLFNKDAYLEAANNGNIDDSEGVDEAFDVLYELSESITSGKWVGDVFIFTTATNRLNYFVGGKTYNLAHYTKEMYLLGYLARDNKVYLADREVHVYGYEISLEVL
Nature of the assay: crystal structure; β'1-604 (10 mg/ml) with CTFKTKTN (30 mg/ml, mixed 1:10); 0.1 M bicine (pH 9.0), 10% MPD; space group P3(1), twinned.

The target of assay [9] is T7, yeast α-COP 1-327 (N-terminal WD-repeat domain), wild type (yeast (S. cerevisiae), UniProt P53622 1-327).
T7 construct: α-COP (Ret1), yeast, residues 1-327, N-terminal WD-repeat domain; also called α1-327; Wild type A327; source: E. coli BL21(DE3)pLysS, purified (glutathione sepharose, thrombin cleavage, S200 gel filtration); not shown: GST, C-terminal, cleaved
T7 sequence (looked up): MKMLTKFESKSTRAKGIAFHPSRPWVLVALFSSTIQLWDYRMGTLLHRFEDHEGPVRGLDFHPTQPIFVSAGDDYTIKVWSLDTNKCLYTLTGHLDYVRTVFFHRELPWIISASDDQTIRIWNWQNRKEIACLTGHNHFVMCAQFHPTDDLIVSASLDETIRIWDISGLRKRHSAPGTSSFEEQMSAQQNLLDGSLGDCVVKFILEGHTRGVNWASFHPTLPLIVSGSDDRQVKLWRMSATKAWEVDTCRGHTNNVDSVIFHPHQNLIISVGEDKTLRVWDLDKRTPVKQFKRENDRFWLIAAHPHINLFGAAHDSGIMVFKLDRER
The assay can be described thus: ITC; Microcal VP-ITC, 10°C, 35 injections of 8 µL; peptide in the syringe at ten times the molar concentration of the protein in the cell; α-COP desalted into 20 mM Hepes pH 7.4, 300 mM NaCl (high salt required for stability).

No end group written: not given here.

B1: KxKxx motif peptide from wild-type yeast Emp47 (RQEIIKTKLL) (peptide)
peptide: RQEIIKTKLL
notes: also called KTKLL motif; source: peptide
For B1, the Kd is 6.8 µM in [1], less than 300 µM in [2], less than 300 µM in [3] and less than 300 µM in assay [4].
In turn, RQEIIKTKLL (also called KTKLL motif) [yeast Emp47 C-terminal KxKxx peptide RQEIIKTKLL] showed a Kd in assay [5] of 10 to 20 µM.

B2: CTFKKTN peptide (KKxx motif derived from yeast Wbp1), used in crystallization (peptide)
peptide: CTFKKTN
notes: KKxx motif derived from the C terminus of yeast Wbp1; The N-terminal cysteine may not be a residue of Wbp1 (surmise); also called CTFKKTN motif; source: peptide
With B2, the binding result in assay [6] was “binds”.

B3: CTFKTKTN peptide (KxKxx motif, synthetic peptide used in crystallization) (peptide)
peptide: CTFKTKTN
notes: synthetic KxKxx peptide used in crystallization; Looks like the Wbp1-derived CTFKKTN with a threonine between the two lysines; source: synthetic peptide
As for B3, the binding result in assay [7] and in [8] was “binds” in each case.
RQEIISTKLL-OH [Emp47 KxKxx peptide without the -5 lysine (STKLL)] displayed a Kd in [1] of roughly 160 µM.
Molecule CTFKKTN-OH [Wbp1 KKTN motif peptide used for ITC] gave a Kd in assay [1] of roughly 85 µM.
On to CTFKKTN-OH [KKTN motif peptide from yeast Wbp1 (as used in ITC)], for which the Kd in assay [9] was determined as 81 µM.

Source of the values: PMC3521961, “Molecular Basis for Recognition of Dilysine Trafficking Motifs by COPI” (Developmental Cell, 2012).
